In paper PMC7181197:

Tests used:
GFP-G3BP1(WT) [1] = target: T1, GFP-G3BP1(WT) (UniProt Q13283 1-466); test: EMSA
[2] = target: GFP-G3BP1(WT);mCherry-Caprin-1 (human?;human?, UniProt Q13283;Q14444 1-466;1-709, |); test: EMSA
GFP-G3BP1(S149A) = GFP-G3BP1(S149A) (UniProt Q13283 1-466, S149A); test: EMSA
GFP-G3BP1(WT) [3] = target: T1, GFP-G3BP1(WT); test: analytical size exclusion chromatography

T1 sequence (Q13283 whole entry): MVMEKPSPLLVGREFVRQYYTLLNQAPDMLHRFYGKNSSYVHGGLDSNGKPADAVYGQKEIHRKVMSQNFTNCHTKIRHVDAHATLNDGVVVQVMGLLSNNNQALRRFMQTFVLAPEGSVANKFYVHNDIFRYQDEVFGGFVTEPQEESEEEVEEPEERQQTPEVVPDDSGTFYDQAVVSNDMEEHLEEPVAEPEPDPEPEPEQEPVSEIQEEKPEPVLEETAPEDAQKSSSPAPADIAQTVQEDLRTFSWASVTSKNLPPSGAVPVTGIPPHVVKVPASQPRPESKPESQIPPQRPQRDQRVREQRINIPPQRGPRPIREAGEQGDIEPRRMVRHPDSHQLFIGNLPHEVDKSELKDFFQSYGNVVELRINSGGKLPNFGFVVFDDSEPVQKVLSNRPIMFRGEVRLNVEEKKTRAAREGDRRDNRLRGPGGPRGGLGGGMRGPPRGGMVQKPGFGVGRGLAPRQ
GFP-G3BP1(WT);mCherry-Caprin-1, sequence (Q13283 whole entry, chain 1 of 2): as the sequence (Q13283 whole entry) above
GFP-G3BP1(WT);mCherry-Caprin-1, sequence (Q14444 whole entry, chain 2 of 2): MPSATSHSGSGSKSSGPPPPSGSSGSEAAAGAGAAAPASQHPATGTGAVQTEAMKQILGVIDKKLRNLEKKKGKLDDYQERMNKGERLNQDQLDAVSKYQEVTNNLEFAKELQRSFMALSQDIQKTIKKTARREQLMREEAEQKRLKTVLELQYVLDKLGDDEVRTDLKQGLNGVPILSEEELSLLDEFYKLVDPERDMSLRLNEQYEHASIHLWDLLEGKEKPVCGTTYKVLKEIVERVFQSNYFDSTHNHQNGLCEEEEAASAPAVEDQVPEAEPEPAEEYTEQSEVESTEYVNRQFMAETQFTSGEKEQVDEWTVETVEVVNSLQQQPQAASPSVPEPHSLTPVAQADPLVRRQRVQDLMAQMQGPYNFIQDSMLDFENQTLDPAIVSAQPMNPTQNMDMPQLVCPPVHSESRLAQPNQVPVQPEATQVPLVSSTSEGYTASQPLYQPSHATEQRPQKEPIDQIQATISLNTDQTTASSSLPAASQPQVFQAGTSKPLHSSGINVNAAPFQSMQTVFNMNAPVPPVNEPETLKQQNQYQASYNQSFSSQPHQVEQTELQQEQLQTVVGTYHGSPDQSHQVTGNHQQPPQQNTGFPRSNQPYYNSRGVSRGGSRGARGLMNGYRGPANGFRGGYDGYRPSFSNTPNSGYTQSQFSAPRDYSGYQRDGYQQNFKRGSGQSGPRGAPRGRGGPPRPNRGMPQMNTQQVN
GFP-G3BP1(S149A), sequence (Q13283 whole entry S149A): as the sequence (Q13283 whole entry) above, with S149A counted along it

B1: A(60)-Cy5 RNA (ssRNA)
RNA: AAAAAAAAAAAAAAAAAAAAAAAAAAAAAAAAAAAAAAAAAAAAAAAAAAAAAAAAAAAA
modifications: 3' pCp-Cy5 ligated (adds one 3' C)
Question: B1 was tested. Which Kd (GFP-G3BP1(WT) [1]) did it give?
Answer: Its Kd is ~2000 nM.

Question: Does B1 bind [2]?
Answer: Result: binds

Question: What about the Kd (GFP-G3BP1(S149A)) of the same binder?
Answer: Its Kd is ~1900 nM.

B2: A(60) RNA unlabeled (ssRNA)
RNA: B1 RNA
Question: Does B2 bind (GFP-G3BP1(WT) [3])?
Answer: Result: binds
